Residue numbers refer to the chain shown, from its start. Names and notes keep the numbering of the source.
B1: gp577 mutant D92A (enzyme, Acanthamoeba polyphaga mimivirus, UniProt A0A0G2YDL0 1-470, looked up)
chain: MAEDKIEAYNKSITRTKYFKMDDAINSPICSKTVFIIANERITKENRIGRYYTVFPSFKKFLKKRDSYPHCHEIIIDHINNKTNIAGRLVFAFDIKITDSSILKDTGLIDKNDNQPIMFNSKTLSITKIPLNFKQQIENTIIETIDQYFHDIDKTILEFIWSTSQNPNKFSKHLTVKNLYFDDWITMSKLFYKLFCKVWDNQYYWISSKDLVDSQIVRNKGSLRMVGSTKINGYPLVFDNKNHTLPDSLIRIYFRNHREKEQLVTRNNINKDIINQFLESNDDIEHHRSIDIIDRHFTKIRNPSYDPIIYQKAFEIYDAIHPNIFKMGKVNGKYLTLIRLKPHKCFLSNKFHEQENAYLYISMSDTTYKISFGCYRFCSKKKMEYLGSLIQGNLMKNSPYIDDTDGTTKKHDFNINIKFLSDSDDESINAPNNIKSLESIKSSKSKKQLKSSKSKKPIKHTKTKNIYVET
B2: gp577 mutant D151A (enzyme, Acanthamoeba polyphaga mimivirus, UniProt A0A0G2YDL0 1-470, looked up)
chain: B1 chain with A92D, D151A
B3: gp577 mutant D213A (enzyme, Acanthamoeba polyphaga mimivirus, UniProt A0A0G2YDL0 1-470, looked up)
chain: B1 chain with A92D, D213A
B4: gp577 mutant H173A (enzyme, Acanthamoeba polyphaga mimivirus, UniProt A0A0G2YDL0 1-470, looked up)
chain: B1 chain with A92D, H173A
B5: gp577 mutant D239A (enzyme, Acanthamoeba polyphaga mimivirus, UniProt A0A0G2YDL0 1-470, looked up)
chain: B1 chain with A92D, D239A

Target: the molecule itself
Test: SEC

Protein | stoichiometry N
B1 | 2
B2 | 2
B3 | 2
B4 | 2
B5 | 2

Source: PMC6648351 (Nucleic Acids Research, 2019)
